For data set [1], the target named is human BCL10 (full length), GST-tag removed (human) (UniProt O95999). Put plainly: cryo-EM structure; helical filaments of BCL10 (full length)-MALT1 (T29-G722); complex at 1 mg/ml, PreScission protease overnight at 12 °C, filaments separated by SEC; core map at 4.9 Å, whole assembly at 5.9 Å.
Data set [2] deals with the molecule itself. The description is as above.

In data set [1], “human MALT1 isoform B (T29-G722), in the filament sample after PreScission treatment (domain or fragment)” had a stoichiometry N of 1.

B1: human BCL10 (full length), GST-tag removed (natural protein, UniProt O95999 1-233, looked up)
chain: MEPTAPSLTEEDLTEVKKDALENLRVYLCEKIIAERHFDHLRAKKILSREDTEEISCRTSSRKRAGKLLDYLQENPKGLDTLVESIRREKTQNFLIQKITDEVLKLRNIKLEHLKGLKCSSCEPFPDGATNNLSRSNSDESNFSEKLRASTVMYHPEGESSTTPFFSTNSSLNLPVLEVGRTENTIFSSTTLPRPGDPGAPPLPPDLQLEEEGTCANSSEMFLPLRSRTVSRQ
notes: BCL10 (B cell lymphoma 10), human, full length; Forms helical filaments together with MALT1 (T29-G722); only residues 10-115 are modelled in the map; also called B cell lymphoma 10; BCL10 wt; not shown: GST, N-terminal, cleaved
B1: the binding result in data set [2] is “binds”.

These data come from paper PMC6168461, “Molecular architecture and regulation of BCL10-MALT1 filaments” (Nature Communications, 2018).
